Broadly, the stoichiometry N is a count of units in the complex or per binding partner.

From paper PMC12313933 (Nature Communications, 2025) come the findings set out here.

The data set “dynamic light scattering” deals with the molecule itself. The data set can be described thus: dynamic light scattering.
The data set “crystal structure” concerns the molecule itself. The data set can be described thus: crystal structure.

Changes are numbered by the printed parent chain. Names and notes keep the numbering of the source.

B1: MIF(Y100H) variant (enzyme, human)
chain: MPMFIVNTNVPRASVPDGFLSELTQQLAQATGKPPQYIAVHVVPDQLMAFGGSSEPCALCSLHSIGKIGGAQNRSYSKLLCGLLAERLRISPDRVYINYHDMNAANVGWNNSTFA
Consider B1, for which the “stoichiometry N” value in “dynamic light scattering” was determined as 3.

B2: MIF(S61H/Y100H) variant (enzyme, human)
chain: B1 chain with S61H
On to B2, for which the binding result in “crystal structure” is “binds”.
